Measurements from patent US20090130652A1 (CRUCELL HOLLAND B V, published 2009).

Target: WNV strain 385-99 (infectious, as used in the virus neutralization assay)
Assay: cell-based or functional assay

| Binder | Potency (%) in 66% neutralization concentration, VNA [%] |
| --- | --- |
| CR4354L4261 (antibody, human IgG1, lambda, V domains shown) VH: QVQLVQSGAEVRKPGASVKVSCKASGYTFTHYYMHWVRQAPGQGLEWMGIINPSGGSTTYAQKLQGRVTMTRDTSTSTVYMELSSLRSEDTAVYYCARDWGSNYVWGSYPKYWGQGTLVTVSS VL: TQAVLTQPSSASGTPGQRVTISCSGSSPNIGSNNVNWYQQLPGTAPKLLIYSNNQRPSGVPGRFSGSKSGTSASLAISGLQSEDEADYYCAAWDDGLSGNYVFGAGTQLTVLS | 106 |
| CR4354L4328 (antibody, human IgG1, lambda, V domains shown) VH: QVQLVQSGAEVRKPGASVKVSCKASGYTFTHYYMHWVRQAPGQGLEWMGIINPSGGSTTYAQKLQGRVTMTRDTSTSTVYMELSSLRSEDTAVYYCARDWGSNYVWGSYPKYWGQGTLVTVSS VL: TQAVLTQPSSVSGTPGQRVTISCSGSSSNIGSNTVNWYQQLPGTAPKLLIYGNNNRPSGVPARFSGSRSGTSASLAISGLRSEDEADYYCAAWDDSLNGPVFGGGTKLTVLG | 286 |
| CR4354L4335 (antibody, human IgG1, lambda, V domains shown) VH: QVQLVQSGAEVRKPGASVKVSCKASGYTFTHYYMHWVRQAPGQGLEWMGIINPSGGSTTYAQKLQGRVTMTRDTSTSTVYMELSSLRSEDTAVYYCARDWGSNYVWGSYPKYWGQGTLVTVSS VL: TQSVLTQPPSTSGTPGQRVTISCSGSDSNIGSNTVNWYQQLPGMAPKLLIYRNNQRPSGVPDRFSGSKSGTSASLAISGLQSEDEADYFCASWDANLGGPLFGGGTKVTVLG | 60 |
